Data published in US20100143940A1, “(3R)-HYDROXYACYL-ACP DEHYDRATASE ENZYMES USED IN THE BIOSYNTHESIS OF MYCOLIC ACIDS AND USE OF SAME FOR SCREENING ANTIBIOTICS” (priority 2007, published 2010).

Tests used:
2-trans-octenoyl-ACP [1] = molecular target: 2-trans-octenoyl-ACP (UniProt P0A6A8)
[2] = molecular target: T1, 2-trans-octenoyl-ACP, P0A6A8
T1 chain: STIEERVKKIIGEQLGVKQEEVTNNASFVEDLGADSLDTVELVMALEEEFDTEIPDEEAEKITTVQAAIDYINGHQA

[3] = Substrate specificity, 2-trans-enoyl-CoA of various chain lengths; type: biochemical
Protocol: (§1) These reactions are monitored by spectrophotometry at 263 nm by means of a thermostated Uvikon 923 spectrophotometer (Kontron Instruments). They are carried out in a quartz cuvette (optical path of 1 cm) in a total volume of 700 μl at 25° C. The reaction mixture contains 100 mM sodium phosphate buffer, pH 7.0, and varying concentrations of substrates. After equilibration of the base line on the reaction mixture in the absence of the enzyme, the reactions are triggered by the addition of enzyme, and then monitored for 1.5 to 5 min. The reaction rate corresponds to the initial rate measured by plotting the tangent of the curve OD=f(time) at time zero.
The substrate specificity was studied in the presence of 2-trans-enoyl-CoA of various chain lengths (C4-C20). The initial rates were measured and compared at a very low substrate concentration in order to reduce as much as possible the solubility problems encountered with these amphiphilic compounds. […]
The tests were carried out in 100 mM sodium phosphate buffer, pH 7.0, in the presence of 3-hydroxybutyryl-CoA (25 or 75 μM) or of 2-trans-octenoyl-CoA (25 μM) or of crotonoyl-CoA (25 μM), and of enzyme (Rv0635-Rv0636: 80 nM; Rv0636-Rv0637: 543 nM). […] After addition of the enzyme, the reactions were monitored by spectrophotometry at 263 nM for 1.5 min. […]

[4] = Study of the ACP-dependency, hydration of the CoA derivative at 263 nm; type: biochemical; conditions: 2-trans-octenoyl-CoA 2 μM; compared with control experiment (no enzyme)
Protocol: as §1
The activities of the enzymes Rv0635-Rv0636 (80 nM), Rv0636-Rv0637 (311 nM) or Rv0636 alone (311 nM) were compared in the presence of 2-trans-octenoyl-ACP (2 μM) or of 2-trans-octenoyl-CoA (2 μM).

[5] = Hydratase activity monitored by spectrophotometry at 263 nm, control experiments of the isomerase test; type: biochemical; conditions: 2-trans-decenoyl-CoA 10 μM; Rv0635-Rv0636 80 nM or Rv0636-Rv0637 543 nM; 100 mM sodium phosphate pH 7.0, 25° C.
Protocol: as §1
The conversions corresponding to the hydration reaction and to the dehydration reaction are associated, respectively, with a decrease and with an increase in the absorbance at 263 nm, linked to the double bond conjugated to the carbonyl. A variation in OD263 of 0.67 corresponds to a variation in concentration of 100 μM.
(§2) The ability of the proteins to catalyze the isomerization reaction was studied in the presence of 3-cis-decenoyl-CoA (10 μM) and of Rv0635-Rv0636 enzyme (80 nM) or Rv0636-Rv0637 enzyme (543 nM). […] The reactions were monitored at 263 nm, where the increase in absorbance results from the conversion of the 3-cis-decenoyl-CoA into 2-trans-decenoyl-CoA.

2-trans-octenoyl-ACP [6] = assay: Study of the ACP-dependency, hydration of the ACP derivative at 263 nm; type: biochemical, E. coli; conditions: 2-trans-octenoyl-ACP 2 μM; Rv0635-Rv0636 80 nM, Rv0636-Rv0637 311 nM, Rv0636 alone 311 nM
[7] = Isomerase activity, conversion of 3-cis-enoyl into 2-trans-enoyl, monitored at 263 nm; type: biochemical; conditions: 3-cis-decenoyl-CoA 10 μM; Rv0635-Rv0636 80 nM or Rv0636-Rv0637 543 nM
Protocol: as §1
As in certain FAS-II systems described, the dehydration step can be catalyzed either by a (3R)-hydroxyacyl-ACP dehydratase, or by a (3R)-hydroxyacyl-ACP dehydratase/isomerase of FabA type which, in vivo, converts the 2-trans-enoyls, formed by the dehydration step, into 3-cis-enoyls. […]
as §2

Which “specific activity (hydration followed at 263 nm), 2 µM substrate, 80 nM enzyme” value (2-trans-octenoyl-ACP [1]) does the source give for Rv0635-Rv0636 heterodimer here?
The value was 0.28 µmol/min/mg.

B1: Rv0636-Rv0637 heterodimer (protein)
chain 1: HHHHHHMALREFSSVKVGDQLPEKTYPLTRQDLVNYAGVSGDLNPIHWDDEIAKVVGLDTAIAHGMLTMGIGGGYVTSWVGDPGAVTEYNVRFTAVVPVPNDGKGAELVFNGRVKSVDPESKSVTIALTATTGGKKIFGRAIASAKLA
chain 2: MALKTDIRGMIWRYPDYFIVGREQCREFARAVKCDHPAFFSEEAAADLGYDALVAPLTFVTILAKYVQLDFFRHVDVGMETMQIVQVDQRFVFHKPVLAGDKLWARMDIHSVDERFGADIVVTRNLCTNDDGELVMEAYTTLMGQQGDGSARLKWDKESGQVIRTA
With B1 as the molecule, how does the “specific activity (hydration followed at 263 nm), 2 µM substrate” value [2] read?
The value was 0.047 µmol/min/mg of protein.

B2: Rv0636-Rv0637: recombinant heterodimeric (3R)-hydroxyacyl-ACP dehydratase of the M. tuberculosis H37Rv FAS-II system, Rv0636 plus Rv0637 (protein)
chain 1: B1 chain 1
chain 2: B1 chain 2
Which “activity on C12-C20 trans-2-enoyl-CoAs at low substrate concentration” value ([3]; 2.5 μM substrate) does the source give for B2 here?
The value was “no activity could be detected”.

And the “activity in the presence of short-chain (C4-C8) substrates” value ([3]; 2.5 or 25 μM 2-trans-enoyl-CoA, Rv0635-Rv0636 80 nM, Rv0636-Rv0637 543 nM)?
Its value is “inactive”.

What about the “activity in the presence of 2-trans-octenoyl-CoA” value [4] of the same molecule?
Its value is “not significant”.

What about the specific activity [5] of the same molecule?
The specific activity was 0.02 μmol/min/mg of protein.

And the “specific activity in the presence of 2-trans-octenoyl-ACP” value (2-trans-octenoyl-ACP [6])?
The value was 0.047 µmol/min/mg.

What about the isomerase activity [7] of the same molecule?
The isomerase activity was “do not exhibit any isomerase activity”.

B3: Rv0636 homodimer: recombinant Rv0636 protein of M. tuberculosis H37Rv (SEQ ID No. 2) carrying the hydratase 2 motif, tested alone (protein, listed as Mycobacterium tuberculosis)
chain: MALREFSSVKVGDQLPEKTYPLTRQDLVNYAGVSGDLNPIHWDDEIAKVVGLDTAIAHGMLTMGIGGGYVTSWVGDPGAVTEYNVRFTAVVPVPNDGKGAELVFNGRVKSVDPESKSVTIALTATTGGKKIFGRAIASAKLA
modifications: homodimer
For B3, which “specific activity in the presence of 2-trans-octenoyl-ACP” value (2-trans-octenoyl-ACP [6]) is on record?
The value was “no activity”.
